T1: Abp1 SH3 (ABP1_YEAST), P15891
T1 chain: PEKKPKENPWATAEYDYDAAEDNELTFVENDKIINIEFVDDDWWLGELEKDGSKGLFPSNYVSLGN

B1: YDL033C 6-19 (peptide)
chain: LNLIGRRSASPYRP
B2: YDR174W 207-219 (peptide)
chain: LQHAAEPPVEKRP
B3: YNL068C 392-405 (peptide)
chain: LSLNKAFEKVPRRP
B4: YKR084C 74-87 (peptide)
chain: LKKTLKKKKTPKKP
B5: YGL003C 218-231 (peptide)
chain: LQSQFFDSMSPVRP
B6: YBR118W 226-239 (peptide)
chain: LLEAIDAIEQPSRP
B7: YBR050C 283-296 (peptide)
chain: LKLSNISHHSPVKP
B8: YML010W 362-374 (peptide)
chain: LIPVQELPLLLKP
B9: YKL101W 858-870 (peptide)
chain: LQKKNDRPSPLKP
B10: YGR184C 639-652 (peptide)
chain: LLSKVHDPNIPLRP
B11: YLR193C 56-68 (peptide)
chain: LKKSGKLPTWVKP
B12: YKL105C 259-271 (peptide)
chain: LQEDLHDPLEFKP
B13: YKR047W 79-91 (peptide)
chain: LLRLRPRPLLLRP
B14: YMR110C 95-107 (peptide)
chain: LHLIEILPKLIKP
B15: YMR156C 126-139 (peptide)
chain: LSHRLWLYAAPKRP
B16: YPR013C 154-166 (peptide)
chain: LMMPVMVPTVYKP
B17: YDR425W 249-262 (peptide)
chain: LNNLLAPPLSPTKP
B18: YKR056W 387-400 (peptide)
chain: LLRENTTILDPSKP
B19: YOR081C 655-668 (peptide)
chain: LRLKKSPLKVPSRP
B20: YOR147W 33-45 (peptide)
chain: LITRLRVPTIKRP
B21: YLR436C 877-890 (peptide)
chain: LNLQHQLEYWPHRP
B22: YMR049C 412-424 (peptide)
chain: LIPELPSPKDLRP
B23: YKL048C 110-123 (peptide)
chain: LGKVVAVKIIPKKP
B24: YPL063W 179-191 (peptide)
chain: LLPPPPPPPYQRP
B25: YPR099C 85-97 (peptide)
chain: LHGNTNAPTPLRP
B26: YBR133C 322-335 (peptide)
chain: LLQEDSRIMPPLKP
B27: YOR098C 23-35 (peptide)
chain: LKSFFTNPNKKRP
B28: YIL108W 388-400 (peptide)
chain: LPQDYYDPSFMRP
B29: YGL131C 434-446 (peptide)
chain: LNDSMFFPYPFKP
B30: YFR013W 73-85 (peptide)
chain: LKERANKPKRKRP
B31: YBR289W 754-767 (peptide)
chain: LRNTTTYKSRPDRP
B32: YPR107C 19-32 (peptide)
chain: LRQEYSFSLDPDRP
B33: YBR083W 422-434 (peptide)
chain: LSKVRGRPMYPRP
B34: YIR006C 225-238 (peptide)
chain: LQPQNQAPLEPLKP
B35: YNR014W 72-85 (peptide)
chain: LNVSAPVVADPTRP
B36: YNL061W 602-614 (peptide)
chain: LLKKGVNPKAKRP
B37: YOR244W 327-340 (peptide)
chain: LSKKENKVGSPEKP
B38: YAL017W 1330-1343 (peptide)
chain: LIKSILNRSVPKRP
B39: YCL008C 171-184 (peptide)
chain: LQQEQNTPPLPPKP
B40: YOR059C 245-258 (peptide)
chain: LNALNVNSHAPTKP
B41: YNL213C 178-191 (peptide)
chain: LIARNVRTFKPFKP
B42: YML113W 123-136 (peptide)
chain: LLQQQRVDVVPPKP
B43: YLR022C 137-149 (peptide)
chain: LQELKFSPVINKP
B44: YFL021W 256-268 (peptide)
chain: LLRRNPSPSIVKP
B45: YGR198W 51-64 (peptide)
chain: LHYHVIGSNGPAKP
B46: YOL028C 50-62 (peptide)
chain: LSKNWELPQRLKP
B47: YCR012W 192-205 (peptide)
chain: LKYFGKALENPTRP
B48: YDR266C 568-581 (peptide)
chain: LKSLNLPQLPPPKP
B49: YIL168W 85-97 (peptide)
chain: LNSSVVVPKTTKP
B50: YNL091W 1210-1222 (peptide)
chain: LNDPTATPFTSRP
B51: YGL174W 3-16 (peptide)
chain: LHQYLSETYGPTKP
B52: YDL180W 44-56 (peptide)
chain: LLHQYDDPLMFKP
B53: YOL078W 925-937 (peptide)
chain: LHLEKMKPDLKKP
B54: YOL008W 135-148 (peptide)
chain: LISKWTIMPHPNRP
B55: YJL141C 497-510 (peptide)
chain: LKPENILLSAPDKP
B56: YER101C 153-165 (peptide)
chain: LIDPRVDPILMRP
B57: YDR176W 173-185 (peptide)
chain: LQVHRDQPREKRP
B58: YOL072W 276-289 (peptide)
chain: LILGKMVKWGPLRP

Target: T1, Abp1 SH3 (ABP1_YEAST), P15891
Assay: SPOT array

| normalised SPOT signal, Boehringer light units (BLU); mean over the file's lines of this peptide | Binder |
| --- | --- |
| 144 | B1 |
| 54.2 | B2 |
| 854 | B3 |
| 163 | B4 |
| 67.6 | B5 |
| 41.3 | B6 |
| 103 | B7 |
| 74.2 | B8 |
| 450 | B9 |
| 135 | B10 |
| 40.8 | B11 |
| 74.4 | B12 |
| 249 | B13 |
| 110 | B14 |
| 171 | B15 |
| 188 | B16 |
| 79.6 | B17 |
| 177 | B18 |
| 452 | B19 |
| 748 | B20 |

| normalised SPOT signal, Boehringer light units (BLU); mean over the file's lines of this peptide | Binder |
| --- | --- |
| 97.9 | B21 |
| 81.6 | B22 |
| 185 | B23 |
| 111 | B24 |
| 69 | B25 |
| 185 | B26 |
| 323 | B27 |
| 153 | B28 |
| 50.6 | B29 |
| 157 | B30 |
| 273 | B31 |
| 144 | B32 |
| 382 | B33 |
| 25.4 | B34 |
| 156 | B35 |
| 54.3 | B36 |
| 32.6 | B37 |
| 324 | B38 |
| 82.6 | B39 |
| 171 | B40 |

| normalised SPOT signal, Boehringer light units (BLU); mean over the file's lines of this peptide | Binder |
| --- | --- |
| 176 | B41 |
| 140 | B42 |
| 66 | B43 |
| 1070 | B44 |
| 60.8 | B45 |
| 1040 | B46 |
| 117 | B47 |
| 40.9 | B48 |
| 114 | B49 |
| 130 | B50 |
| 39 | B51 |
| 19.6 | B52 |
| 88.4 | B53 |
| 1030 | B54 |
| 7.9 | B55 |
| 75.9 | B56 |
| 140 | B57 |
| 404 | B58 |

From PMC314469, “Protein Interaction Networks by Proteome Peptide Scanning” (PLoS Biology, 2004)
